B1: humanized IgG1 anti-MUC1-SEA mAb (HM5 LM4) (antibody, V domains shown)
VH: EIQLVQSGAEVKKPGSSVKVSCKVTGHSITRGSSWHWMRQAPGQGLEWIGYIHYGGGTSYNPSLKSRITITRDTSTNTFYMELSSLRSEDTAFYFCARYSYDITYRWFFDVWGQGTLVTVSS
VL: DIQMTQSPSTLSASVGDRVTITCRASQNIGTSIHWYQQKPGKAPKLLIKYASESISGVPSRFSGSGSGTEFTLTISSLQPDDFATYYCQQNNNWPLTFGQGTKVEIKR
notes: also called Humanized anti-MUC1 SEA IgG1; humanized IgG anti-MUC1-SEA mAb
B2: HM2 LM2 variant of humanized anti-MUC1 antibody SP66 (antibody, V domains shown)
VH: EIQLVQSGAEVKKPGSSVKVSCKVTGHSITRGSSWHWMRQAPGQGLEWIGYIHYGGGTSYNPSLKSRITITRDTSTNTAYMELSSLRSEDTAFYFCARYSYDITYRWFFDVWGQGTLVTVSS
VL: DIQMTQSPSTLSASVGDRVTITCRASQNIGTSIHWYQQKPGKAPKLLIKRASESISGVPSRFSGSGSGTEFTLTISSLQPDDFATYYCQQNNNWPLTFGQGTKVEVK
notes: Humanized IgG expressed in CHO cells; only variable domains tied to the variant
B3: HM3 LM2 variant of humanized anti-MUC1 antibody SP66 (antibody, V domains shown)
VH: EIQLVQSGAEVKKPGSSVKVSCKVTGHSITRGSSWHWMRQAPGQGLEWIGYIHYGGGTSYNPSLKSRATLTRDTSTNTAYMELSSLRSEDTAFYFCARYSYDITYRWFFDVWGQGTLVTVSS
VL: DIQMTQSPSTLSASVGDRVTITCRASQNIGTSIHWYQQKPGKAPKLLIKRASESISGVPSRFSGSGSGTEFTLTISSLQPDDFATYYCQQNNNWPLTFGQGTKVEVK
notes: as for B2
B4: HM3 LM3 variant of humanized anti-MUC1 antibody SP66 (antibody, V domains shown)
VH: EIQLVQSGAEVKKPGSSVKVSCKVTGHSITRGSSWHWMRQAPGQGLEWIGYIHYGGGTSYNPSLKSRATLTRDTSTNTAYMELSSLRSEDTAFYFCARYSYDITYRWFFDVWGQGTLVTVSS
VL: DIQMTQSPSTLSASVGDRVTITCRASQNIGTSIHWYQQKPGKAPKLLIKYASESISGVPSRFSGSGSGTEFTLTISSLQPDDFATYYCQQNNNWPLTFGQGTKVEVK
notes: as for B2
B5: HM4 LM2 variant of humanized anti-MUC1 antibody SP66 (antibody, V domains shown)
VH: EIQLVQSGAEVKKPGSSVKVSCKVTGHSITRGSSWHWMRQAPGQGLEWIGYIHYGGGTSYNPSLKSRATLTRDTSTNTFYMELSSLRSEDTAFYFCARYSYDITYRWFFDVWGQGTLVTVSS
VL: DIQMTQSPSTLSASVGDRVTITCRASQNIGTSIHWYQQKPGKAPKLLIKRASESISGVPSRFSGSGSGTEFTLTISSLQPDDFATYYCQQNNNWPLTFGQGTKVEVK
notes: as for B2
B6: HM5 LM3 variant of humanized anti-MUC1 antibody SP66 (antibody, V domains shown)
VH: EIQLVQSGAEVKKPGSSVKVSCKVTGHSITRGSSWHWMRQAPGQGLEWIGYIHYGGGTSYNPSLKSRITITRDTSTNTFYMELSSLRSEDTAFYFCARYSYDITYRWFFDVWGQGTLVTVSS
VL: DIQMTQSPSTLSASVGDRVTITCRASQNIGTSIHWYQQKPGKAPKLLIKYASESISGVPSRFSGSGSGTEFTLTISSLQPDDFATYYCQQNNNWPLTFGQGTKVEVK
notes: as for B2
B7: HM5 LM2 variant of humanized anti-MUC1 antibody SP66 (antibody, V domains shown)
VH: EIQLVQSGAEVKKPGSSVKVSCKVTGHSITRGSSWHWMRQAPGQGLEWIGYIHYGGGTSYNPSLKSRITITRDTSTNTFYMELSSLRSEDTAFYFCARYSYDITYRWFFDVWGQGTLVTVSS
VL: DIQMTQSPSTLSASVGDRVTITCRASQNIGTSIHWYQQKPGKAPKLLIKRASESISGVPSRFSGSGSGTEFTLTISSLQPDDFATYYCQQNNNWPLTFGQGTKVEVK
notes: as for B2
B8: HM4 LM3 variant of humanized anti-MUC1 antibody SP66 (antibody, V domains shown)
VH: EIQLVQSGAEVKKPGSSVKVSCKVTGHSITRGSSWHWMRQAPGQGLEWIGYIHYGGGTSYNPSLKSRATLTRDTSTNTFYMELSSLRSEDTAFYFCARYSYDITYRWFFDVWGQGTLVTVSS
VL: DIQMTQSPSTLSASVGDRVTITCRASQNIGTSIHWYQQKPGKAPKLLIKYASESISGVPSRFSGSGSGTEFTLTISSLQPDDFATYYCQQNNNWPLTFGQGTKVEVK
notes: as for B2
B9: HM2 LM3 variant of humanized anti-MUC1 antibody SP66 (antibody, V domains shown)
VH: EIQLVQSGAEVKKPGSSVKVSCKVTGHSITRGSSWHWMRQAPGQGLEWIGYIHYGGGTSYNPSLKSRITITRDTSTNTAYMELSSLRSEDTAFYFCARYSYDITYRWFFDVWGQGTLVTVSS
VL: DIQMTQSPSTLSASVGDRVTITCRASQNIGTSIHWYQQKPGKAPKLLIKYASESISGVPSRFSGSGSGTEFTLTISSLQPDDFATYYCQQNNNWPLTFGQGTKVEVK
notes: as for B2

The binders below were run against T1, recombinant human MUC1-SEA (MUC1 antigen, Acrobiosystems, Cat: MU1-H52H9) (human, UniProt P15941 1039-1158) (assay: SPR, single cycle kinetics; MUC1 antigen captured on anti-His CM5 chip).
T1 construct: Bought protein, captured on an anti-His chip (so His-tagged)
T1 sequence: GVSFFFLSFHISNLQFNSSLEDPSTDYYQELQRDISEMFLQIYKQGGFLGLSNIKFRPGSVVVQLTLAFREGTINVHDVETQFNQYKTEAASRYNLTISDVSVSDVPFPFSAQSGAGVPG
For B1, the Kd was 0.0397 nM, the koff was 0.000281 s⁻¹ and the kon was 7.07e+06 M⁻¹ s⁻¹.

The binders below were run against T1, recombinant human MUC1-SEA (MUC1 …) (assay: SPR; MUC1 antigen captured on anti-His CM5 chip, antibody as analyte).
Work on B2 yielded a Kd of 0.144 nM, a koff of 0.000255 s⁻¹ and a kon of 1.77e+06 M⁻¹ s⁻¹. B1 gave a Kd of 0.0298 nM, a koff of 0.00015 s⁻¹ and a kon of 5.02e+06 M⁻¹ s⁻¹. Work on B3 yielded a Kd of 0.186 nM, a koff of 0.000492 s⁻¹ and a kon of 2.65e+06 M⁻¹ s⁻¹. Binder B4 has a Kd of 0.0775 nM, a koff of 0.00347 s⁻¹ and a kon of 4.47e+07 M⁻¹ s⁻¹. Work on B5 yielded a Kd of 0.0639 nM, a koff of 0.000261 s⁻¹ and a kon of 4.08e+06 M⁻¹ s⁻¹. For B6, the Kd was 0.05 nM, the koff was 0.000198 s⁻¹ and the kon was 3.97e+06 M⁻¹ s⁻¹. Work on B7 yielded a Kd of 0.0444 nM, a koff of 0.000213 s⁻¹ and a kon of 4.8e+06 M⁻¹ s⁻¹. For B8, the Kd was 0.0826 nM, the koff was 0.000238 s⁻¹ and the kon was 2.88e+06 M⁻¹ s⁻¹. B9 gave a Kd of 0.0598 nM, a koff of 0.000188 s⁻¹ and a kon of 3.14e+06 M⁻¹ s⁻¹.

Reference: patent US20250041437A1 (SUN PHARMA ADVANCED RESEARCH, published 2025)
